The source of these data is US9482669B2, “Crystal structure of the NanR and ManNAc-6P complex, and uses thereof” (priority 2013, dated 2016).

One assay concerns PnanTp. Description: E. coli dual plasmid system (luciferase reporter fused to PnanTp). The class given is cell-based. The conditions noted are these: for luciferase activity (PnanTp) after addition of Neu5Ac: BSE1201 host, arabinose, presence or absence of Neu5Ac; for repressive effect of NanR on activity of PnanTp: point mutations in DBD. Here is the method: E. coli strains were co-transformed with a luciferase reporter plasmid (pBS0915) and one of the pNB-series of plasmids that express NanR. Cells were cultured overnight and then diluted into the appropriate fresh media (supplemented M9 in FIG. 3; LB in FIG. 4) containing arabinose (0.002%), and incubated at 37° C. until cells grew to early exponential phase. Relative luminescence unit (RLU) was calculated by dividing the luminescence by the A600, as described previously. For screening ligand-sensing residues, the BSE1201 strain (ΔaraBAD ΔnanE) was used as the host cell instead of DH5α to ensure that the arabinose was not used as a carbon source and that ManNAc-6P generated from Neu5Ac was accumulated in the cell.
To assess the importance of the interaction between ManNAc-6P and NanR to regulation of the nan genes, the residues involved in ligand-binding were mutated and the impact on NanR function was investigated using an E. coli dual plasmid system. Cells were cotransformed with plasmids containing a luciferase reporter gene fused to the NanR-binding nanT(PSL)AR promoter (PnanTp), and wild-type or mutant NanR, and then incubated in the presence of arabinose and the presence or absence of Neu5Ac.
The simplest helix-turn-helix (HTH)-containing DBD includes three core helices; the HTH domains can form tetra-helical bundle, winged helix, and ribbon-helix-helix type configurations. The DBD of NanR is composed of a six-helix bundle, which is not the archetypal conformation of HTH-containing domains; therefore, the recognition helix required for DNA-binding could not been determined. […] The importance of these residues to DNA-binding was examined using an E. coli dual plasmid system described in Example 2. The repressive effect of wild-type NanR on activity of PnanTp was abolished by the R57A, R57L, R60A, and R60L point mutations (FIG. 4c).
A general note: A reporter such as luciferase makes a cellular process visible.

Assay [1] concerns nanTp-nanE intergenic region. Description: EMSA of NanR with nanTp-nanE intergenic region. Type of assay: binding, Vibrio vulnificus. Particulars: wild-type or mutant NanR. Here is the method: Purified His-NanR protein was used to raise a primary polyclonal antibody by immunizing European rabbits (Oryctolagus curiculus). First, after one primary injection containing 500 μg of protein, three boosters containing 200 μg of protein was performed at 2-week intervals. Western blotting, EMSA and DNaseI footprinting assays were performed according to typical procedures known in the art.
NanR represses both nan T(PSL)AR and nanEK nagA operons by binding to an operator within the nanTp-nanE intergenic region. To examine the role of R57 and R60 residues in DNA binding, EMSA (electrophoretic gel mobility shift assays), in which the nanTp-nanE intergenic region was incubated with wild-type or mutant NanR in the absence or presence of ManNAc-6P, were performed.
The importance of K188 and K199 residues on all to binding of NanR to DNA was assessed by EMSA. […] Furthermore, the mutants were much more susceptible to ManNAc-6P than wild-type NanR (FIG. 10). […] The transcriptional control region of nan operon interacts with the dimer via the positively charged residues in this space (FIGS. 7b and 7c).
A general note: In EMSA bound probe runs differently from free probe, usually more slowly.

B1: S138A: modified NanR protein, Ser138 substituted with alanine (protein)
chain: MGSPKNLLVRLRSNMEPFSKKLRVVADYILENAHDVQFQTITDLARNTQTSEATVVRLCRDMGYKGYSDFRMALAVDLSQTESRQQNHIEGDICDVSAQSAVDSLQDTAKLIDRKSLARIVERVHQAEFIGCIGVGAASIVGRYLAYRLIRIGKKAIMFEDTHLAAMSASRSSQGDLWFAVSSSGSTKEVIHAAGLAYKRDIPVVSLTNINHSPLSSLSTEMLVAARPEGPLTGGAFASKVGALLLVDVLVNSLLESYPEYKDSVQETAEVVIPLMAN
B1: the “luciferase activity (PnanTp) after addition of Neu5Ac” value (“luciferase activity (PnanTp)” below) in the assay on PnanTp is given as “unable to activate PnanTp”.

B2: E229L: modified NanR protein, Glu229 substituted with leucine (protein)
chain: MGSPKNLLVRLRSNMEPFSKKLRVVADYILENAHDVQFQTITDLARNTQTSEATVVRLCRDMGYKGYSDFRMALAVDLSQTESRQQNHIEGDICDVSAQSAVDSLQDTAKLIDRKSLARIVERVHQAEFIGCIGVGASSIVGRYLAYRLIRIGKKAIMFEDTHLAAMSASRSSQGDLWFAVSSSGSTKEVIHAAGLAYKRDIPVVSLTNINHSPLSSLSTEMLVAARPLGPLTGGAFASKVGALLLVDVLVNSLLESYPEYKDSVQETAEVVIPLMAN
Take B2: in the assay with PnanTp, the “luciferase activity (PnanTp)” value was “unable to activate PnanTp”.

B3: H163A: modified NanR protein, His163 substituted with alanine (protein)
chain: MGSPKNLLVRLRSNMEPFSKKLRVVADYILENAHDVQFQTITDLARNTQTSEATVVRLCRDMGYKGYSDFRMALAVDLSQTESRQQNHIEGDICDVSAQSAVDSLQDTAKLIDRKSLARIVERVHQAEFIGCIGVGASSIVGRYLAYRLIRIGKKAIMFEDTALAAMSASRSSQGDLWFAVSSSGSTKEVIHAAGLAYKRDIPVVSLTNINHSPLSSLSTEMLVAARPEGPLTGGAFASKVGALLLVDVLVNSLLESYPEYKDSVQETAEVVIPLMAN
For B3, the “luciferase activity (PnanTp)” value in the assay with PnanTp is given as “unable to activate PnanTp”.

B4: R60L: modified NanR protein, Arg60 substituted with leucine (protein)
chain: MGSPKNLLVRLRSNMEPFSKKLRVVADYILENAHDVQFQTITDLARNTQTSEATVVRLCLDMGYKGYSDFRMALAVDLSQTESRQQNHIEGDICDVSAQSAVDSLQDTAKLIDRKSLARIVERVHQAEFIGCIGVGASSIVGRYLAYRLIRIGKKAIMFEDTHLAAMSASRSSQGDLWFAVSSSGSTKEVIHAAGLAYKRDIPVVSLTNINHSPLSSLSTEMLVAARPEGPLTGGAFASKVGALLLVDVLVNSLLESYPEYKDSVQETAEVVIPLMAN
In the case of B4, in the assay on PnanTp, the “repressive effect of NanR on activity of PnanTp” value is “abolished”.

B5: K188A (protein)
chain: MGSPKNLLVRLRSNMEPFSKKLRVVADYILENAHDVQFQTITDLARNTQTSEATVVRLCRDMGYKGYSDFRMALAVDLSQTESRQQNHIEGDICDVSAQSAVDSLQDTAKLIDRKSLARIVERVHQAEFIGCIGVGASSIVGRYLAYRLIRIGKKAIMFEDTHLAAMSASRSSQGDLWFAVSSSGSTAEVIHAAGLAYKRDIPVVSLTNINHSPLSSLSTEMLVAARPEGPLTGGAFASKVGALLLVDVLVNSLLESYPEYKDSVQETAEVVIPLMAN
B5: the “DNA binding in EMSA” value in assay [1] is “not as conspicuous as that of wild-type NanR”.

B6: R57L: modified NanR protein, Arg57 substituted with leucine (protein)
chain: MGSPKNLLVRLRSNMEPFSKKLRVVADYILENAHDVQFQTITDLARNTQTSEATVVLLCRDMGYKGYSDFRMALAVDLSQTESRQQNHIEGDICDVSAQSAVDSLQDTAKLIDRKSLARIVERVHQAEFIGCIGVGASSIVGRYLAYRLIRIGKKAIMFEDTHLAAMSASRSSQGDLWFAVSSSGSTKEVIHAAGLAYKRDIPVVSLTNINHSPLSSLSTEMLVAARPEGPLTGGAFASKVGALLLVDVLVNSLLESYPEYKDSVQETAEVVIPLMAN
For the molecule B6, in the assay with PnanTp, the “repressive effect of NanR on activity of PnanTp” value is given as “abolished”.

B7: H163L: modified NanR protein, His163 substituted with leucine (protein)
chain: MGSPKNLLVRLRSNMEPFSKKLRVVADYILENAHDVQFQTITDLARNTQTSEATVVRLCRDMGYKGYSDFRMALAVDLSQTESRQQNHIEGDICDVSAQSAVDSLQDTAKLIDRKSLARIVERVHQAEFIGCIGVGASSIVGRYLAYRLIRIGKKAIMFEDTLLAAMSASRSSQGDLWFAVSSSGSTKEVIHAAGLAYKRDIPVVSLTNINHSPLSSLSTEMLVAARPEGPLTGGAFASKVGALLLVDVLVNSLLESYPEYKDSVQETAEVVIPLMAN
B7: in the assay with PnanTp, the “luciferase activity (PnanTp)” value is on record as “unable to activate PnanTp”.

B8: K188L (protein)
chain: MGSPKNLLVRLRSNMEPFSKKLRVVADYILENAHDVQFQTITDLARNTQTSEATVVRLCRDMGYKGYSDFRMALAVDLSQTESRQQNHIEGDICDVSAQSAVDSLQDTAKLIDRKSLARIVERVHQAEFIGCIGVGASSIVGRYLAYRLIRIGKKAIMFEDTHLAAMSASRSSQGDLWFAVSSSGSTLEVIHAAGLAYKRDIPVVSLTNINHSPLSSLSTEMLVAARPEGPLTGGAFASKVGALLLVDVLVNSLLESYPEYKDSVQETAEVVIPLMAN
Regarding B8, the “DNA binding in EMSA” value in assay [1] is reported as “not as conspicuous as that of wild-type NanR”.

B9: S184A: modified NanR protein, Ser184 substituted with alanine (protein)
chain: MGSPKNLLVRLRSNMEPFSKKLRVVADYILENAHDVQFQTITDLARNTQTSEATVVRLCRDMGYKGYSDFRMALAVDLSQTESRQQNHIEGDICDVSAQSAVDSLQDTAKLIDRKSLARIVERVHQAEFIGCIGVGASSIVGRYLAYRLIRIGKKAIMFEDTHLAAMSASRSSQGDLWFAVSSAGSTKEVIHAAGLAYKRDIPVVSLTNINHSPLSSLSTEMLVAARPEGPLTGGAFASKVGALLLVDVLVNSLLESYPEYKDSVQETAEVVIPLMAN
For B9, the “luciferase activity (PnanTp)” value with PnanTp was “as active as wild-type NanR”.

B10: K240M: modified NanR protein, Lys240 substituted with methionine (protein)
chain: MGSPKNLLVRLRSNMEPFSKKLRVVADYILENAHDVQFQTITDLARNTQTSEATVVRLCRDMGYKGYSDFRMALAVDLSQTESRQQNHIEGDICDVSAQSAVDSLQDTAKLIDRKSLARIVERVHQAEFIGCIGVGASSIVGRYLAYRLIRIGKKAIMFEDTHLAAMSASRSSQGDLWFAVSSSGSTKEVIHAAGLAYKRDIPVVSLTNINHSPLSSLSTEMLVAARPEGPLTGGAFASMVGALLLVDVLVNSLLESYPEYKDSVQETAEVVIPLMAN
In the case of B10, the “luciferase activity (PnanTp)” value in the assay with PnanTp is “unable to activate PnanTp”.

B11: K240A: modified NanR protein, Lys240 substituted with alanine (protein)
chain: MGSPKNLLVRLRSNMEPFSKKLRVVADYILENAHDVQFQTITDLARNTQTSEATVVRLCRDMGYKGYSDFRMALAVDLSQTESRQQNHIEGDICDVSAQSAVDSLQDTAKLIDRKSLARIVERVHQAEFIGCIGVGASSIVGRYLAYRLIRIGKKAIMFEDTHLAAMSASRSSQGDLWFAVSSSGSTKEVIHAAGLAYKRDIPVVSLTNINHSPLSSLSTEMLVAARPEGPLTGGAFASAVGALLLVDVLVNSLLESYPEYKDSVQETAEVVIPLMAN
For B11, the “luciferase activity (PnanTp)” value in the assay on PnanTp was “unable to activate PnanTp”.

B12: S182A: modified NanR protein, Ser182 substituted with alanine (protein)
chain: MGSPKNLLVRLRSNMEPFSKKLRVVADYILENAHDVQFQTITDLARNTQTSEATVVRLCRDMGYKGYSDFRMALAVDLSQTESRQQNHIEGDICDVSAQSAVDSLQDTAKLIDRKSLARIVERVHQAEFIGCIGVGASSIVGRYLAYRLIRIGKKAIMFEDTHLAAMSASRSSQGDLWFAVASSGSTKEVIHAAGLAYKRDIPVVSLTNINHSPLSSLSTEMLVAARPEGPLTGGAFASKVGALLLVDVLVNSLLESYPEYKDSVQETAEVVIPLMAN
For B12, the “luciferase activity (PnanTp)” value in the assay with PnanTp is recorded as “unable to activate PnanTp”.
